Patent publication US20140186365A1
Blank lines part the entries; values can stand above or below the binder they belong to.

Assays:
[1] = biological target: Human Serum Albumin (human) (UniProt P02768); assay: BLI (Octet Red), HSA on sensor tips, VH domain in solution, 1:1 fit
[2] = biological target: Mouse Serum Albumin (mouse) (UniProt P07724); assay: BLI (Octet Red), MSA on sensor tips, VH domain in solution, 1:1 fit
Chain of UniProt P07724 (P07724 25-608 limits assumed): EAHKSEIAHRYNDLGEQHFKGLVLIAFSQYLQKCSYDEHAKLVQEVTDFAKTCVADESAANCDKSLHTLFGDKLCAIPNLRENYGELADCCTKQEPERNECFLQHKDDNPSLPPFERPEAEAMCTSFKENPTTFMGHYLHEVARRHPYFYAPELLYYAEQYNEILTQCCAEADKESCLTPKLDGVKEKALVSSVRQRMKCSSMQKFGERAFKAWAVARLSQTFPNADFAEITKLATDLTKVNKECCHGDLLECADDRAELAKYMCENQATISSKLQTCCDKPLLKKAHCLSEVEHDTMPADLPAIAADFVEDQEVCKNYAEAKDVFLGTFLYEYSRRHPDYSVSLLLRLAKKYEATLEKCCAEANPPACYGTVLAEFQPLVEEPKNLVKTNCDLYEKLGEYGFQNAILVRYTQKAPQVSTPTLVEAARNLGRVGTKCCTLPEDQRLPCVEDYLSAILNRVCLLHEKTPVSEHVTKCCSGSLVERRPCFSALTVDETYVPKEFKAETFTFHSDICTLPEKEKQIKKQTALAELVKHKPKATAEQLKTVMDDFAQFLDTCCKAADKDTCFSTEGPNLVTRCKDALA

Chain of UniProt P02768 (P02768 25-609 limits assumed): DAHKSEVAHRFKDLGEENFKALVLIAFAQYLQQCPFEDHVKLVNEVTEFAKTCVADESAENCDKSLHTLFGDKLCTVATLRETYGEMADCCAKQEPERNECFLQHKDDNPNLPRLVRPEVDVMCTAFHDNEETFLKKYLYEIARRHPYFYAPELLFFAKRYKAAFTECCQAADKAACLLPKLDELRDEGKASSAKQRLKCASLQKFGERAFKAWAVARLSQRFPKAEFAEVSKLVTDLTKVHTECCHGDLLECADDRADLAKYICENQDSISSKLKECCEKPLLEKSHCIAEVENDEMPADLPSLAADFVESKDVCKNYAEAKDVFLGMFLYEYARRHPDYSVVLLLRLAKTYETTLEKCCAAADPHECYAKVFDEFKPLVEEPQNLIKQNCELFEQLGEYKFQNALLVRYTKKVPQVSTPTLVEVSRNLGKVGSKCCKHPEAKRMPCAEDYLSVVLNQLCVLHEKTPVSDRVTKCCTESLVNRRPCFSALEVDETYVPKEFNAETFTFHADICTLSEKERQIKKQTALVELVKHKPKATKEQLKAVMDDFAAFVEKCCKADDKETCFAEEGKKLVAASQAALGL

B2: VH-1C5 (protein)
VH: QVQLQQSGPGLVKPSQTLSLTCAISGDSVSSNSAAWNWIRQSPSRGLEWLGRTYYRSKWYNDYAVSVKSRITINPDTSKNQFSLQLNSVTPEDTAVYYCARTPSTGTLDCWGRGTLVTVSSSASGAGS
Kd [1]: 18.2 nM | koff [1]: 9.58e-05 s⁻¹ | kon [1]: 5260 M⁻¹ s⁻¹ | Kd [2]: 6.32 nM | koff [2]: 5.42e-05 s⁻¹ | kon [2]: 8570 M⁻¹ s⁻¹

B3: VH-3B11 (protein)
VH: EVQLVQSGAEVKKPGESLKISCKGSGYSFTSYWIGWVRQMPGKGLEWMGIVYPGDSDTRYSPSFQGQVTISAGKSISTAYLQWSSLKASDTAMYYCARPSMGATTWISAFDIWGQGTTVTVSSSASGAGS
Kd [1]: 18.1 nM | koff [1]: 0.000126 s⁻¹ | kon [1]: 6980 M⁻¹ s⁻¹ | Kd [2]: 9.61 nM | koff [2]: 7.88e-05 s⁻¹ | kon [2]: 8200 M⁻¹ s⁻¹

Next, values leading:

Kd [1]: 13.3 nM | koff [1]: 0.000141 s⁻¹ | kon [1]: 10600 M⁻¹ s⁻¹ | Kd [2]: 12.6 nM | koff [2]: 0.000105 s⁻¹ | kon [2]: 8340 M⁻¹ s⁻¹
B1: VH-4D6 (protein)
VH: EVQLVQSGAEVKKPGESLKISCKGSGYSFTSYWIGWVRQMPGKGLEWMGIIYPGDSDTRYSPSFQGQVTISADKSISTAYLQWSSLKASDTAMYYCARLDCSGGSCYYYYYGMDVWGQGTTVTVSSSASGAGS

Kd [1]: 23.8 nM | koff [1]: 0.000155 s⁻¹ | kon [1]: 6500 M⁻¹ s⁻¹ | Kd [2]: 31.8 nM | koff [2]: 0.000218 s⁻¹ | kon [2]: 6870 M⁻¹ s⁻¹
B4: VH-3C2 (protein)
VH: QVQLQQSGPGLVKPSQTLSLTCAISGDSVSSKSAAWNWIRQSPSRGLEWLGRTYYRSKWYNDYVVSLRSRITVSPDTSKNQFSLQLNSVTPEDTAMYYCARTRGHIDLWGRGTLVTVSSSASGAGS

Kd [1]: 23.6 nM | koff [1]: 0.000133 s⁻¹ | kon [1]: 5630 M⁻¹ s⁻¹ | Kd [2]: 39.3 nM | koff [2]: 0.000226 s⁻¹ | kon [2]: 5750 M⁻¹ s⁻¹
B5: VH-3E11 (protein)
VH: QVQLQQSGPGLVKPSQTLSLTCAISGDSVSGNSAAWNWIRQSPSRGLEWLGRTYYRSKWYIGYAASLQSRLAINADTSKNQLSLRLSSVTPEDTAVYYCVGRHYSGHSGAFDTWGHGTMVTVSSSASGAGS
